Laboratory results published in publication PMC4051425.
Read-outs that look alike come from different tables or passages of the source.

T1: TRBP-RBD2 (second dsRBD of TRBP) (UniProt Q15633 159-227)
T1 sequence: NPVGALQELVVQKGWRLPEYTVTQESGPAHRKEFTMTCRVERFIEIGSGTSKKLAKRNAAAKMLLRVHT

B1: 25-bp dsRNA (dsRNA)
RNA 1: GCUUGUCGGGAGCGCCACCCUCUGC
RNA 2: GCAGAGGGUGGCGCUCCCGACAAGC
B2: 25-bp dsDNA (dsDNA)
DNA 1: GCTTGTCGGGAGCGCCACCCTCTGC
DNA 2: GCAGAGGGTGGCGCTCCCGACAAGC

Assays:
[1] = target: T1, TRBP-RBD2 (second dsRBD of TRBP); test: EMSA
[2] = target: T1, TRBP-RBD2 (second dsRBD of TRBP); test: EMSA; remark: listed apart in the source

Row | Binder | binding result [1] | binding result [2]
1 | B1 | binds | –
2 | B2 | – | no binding
